Assay results from patent publication US20110014656A1 (ZymoGenetics, published 2011).
Where “and” joins values, the source holds several entries; their conditions need not be identical. Identical values can stand only once.

Legend:
[1] = molecular target: T1, human IL-17RC, x1 splice variant, on transfected cells (human, UniProt Q8NAC3 21-791); experiment: saturation binding, 125I-cytokine on BHK cells; high affinity site of a two-site fit
T1 construct: Expressed on BHK, 293F or NIH3T3 cells; also called hIL-17RC; hIL-17RC (x1)
T1 sequence: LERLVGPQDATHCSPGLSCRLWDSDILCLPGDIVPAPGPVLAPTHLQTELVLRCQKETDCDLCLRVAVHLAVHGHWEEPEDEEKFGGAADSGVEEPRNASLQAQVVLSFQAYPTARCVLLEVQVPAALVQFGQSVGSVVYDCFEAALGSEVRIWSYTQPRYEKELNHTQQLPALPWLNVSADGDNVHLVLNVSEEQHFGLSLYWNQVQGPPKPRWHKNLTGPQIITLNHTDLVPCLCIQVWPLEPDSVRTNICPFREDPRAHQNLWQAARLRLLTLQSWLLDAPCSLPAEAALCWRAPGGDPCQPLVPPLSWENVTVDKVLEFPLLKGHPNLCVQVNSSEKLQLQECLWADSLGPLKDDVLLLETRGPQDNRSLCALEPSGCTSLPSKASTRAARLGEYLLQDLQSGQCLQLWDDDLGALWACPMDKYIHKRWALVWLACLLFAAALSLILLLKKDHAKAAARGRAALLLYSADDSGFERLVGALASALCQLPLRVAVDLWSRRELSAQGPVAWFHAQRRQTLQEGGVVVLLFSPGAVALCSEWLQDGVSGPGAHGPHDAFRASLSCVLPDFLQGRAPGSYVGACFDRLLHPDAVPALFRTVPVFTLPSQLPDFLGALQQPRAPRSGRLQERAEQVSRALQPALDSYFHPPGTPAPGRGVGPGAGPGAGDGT
Experimental: (§1) Cold competitors were added in 100 fold molar excess. […] Wells were incubated on ice for 1-hour followed by two washes with PBS (Invitrogen 20012-027) and one wash with a high salt solution (1.5M NaCL, 50 mM HEPES pH 7.4). Wells were extracted with 500 ul of 0.8M NaOH for 30 min. at room temperature and counts per minute were measured in a gamma counter (Packard Cobra II A5005).
Transfected BHK cells were plated into 24-well dishes as in one. […] Separately, 100 fold molar excess of cold ligand was added at each dilution point. Cells were washed, extracted and counted as in one. Specific counts per minute were plotted against concentration of radiolabeled ligand added by subtracting the 100 fold excess counts from the uncompeted counts at each dilution point. These normalized data were plotted to generate saturation binding curves for each combination of radiolabeled ligand and transfected BHK cells.

[2] = molecular target: T2, human IL-17 receptor (IL-17RA) on transfected cells (human, UniProt Q96F46 33-320); experiment: cell-based or functional assay
T2 sequence: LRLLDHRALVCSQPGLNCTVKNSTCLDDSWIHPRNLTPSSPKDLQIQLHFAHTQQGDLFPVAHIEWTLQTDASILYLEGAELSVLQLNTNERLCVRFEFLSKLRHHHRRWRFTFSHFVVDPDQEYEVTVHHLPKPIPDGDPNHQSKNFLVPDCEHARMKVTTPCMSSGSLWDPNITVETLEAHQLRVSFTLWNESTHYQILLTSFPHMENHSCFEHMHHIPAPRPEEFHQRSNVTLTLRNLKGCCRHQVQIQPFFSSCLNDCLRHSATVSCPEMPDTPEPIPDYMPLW

[3] = molecular target: T1, human IL-17RC, x1 splice variant, on …; experiment: cell-based or functional assay
[4] = molecular target: T1, human IL-17RC, x1 splice variant, on …; experiment: competition, 100x molar cold ligand vs 125I-IL-17A on BHK hIL-17RC cells
Experimental: as §1

[5] = molecular target: T1, human IL-17RC, x1 splice variant, on …; experiment: competition, 100x molar cold ligand vs 125I-IL-17F on BHK hIL-17RC cells
Experimental: as §1

[6] = molecular target: T1, human IL-17RC, x1 splice variant, on …; experiment: saturation binding, iodinated cytokine on transfected BHK cells

Kd [1]: 0.05 nM and 0.06 nM and 0.08 nM
EC50, luciferase in nih3t3/kz142.8/IL-17R cells [2]: 12.4 ng/mL
EC50, luciferase in nih3t3/kz142.8/hcytor14X1 cells [3]: 0.61 ng/mL
fold more potent EC50 in the recombinant line than in the parental line [3]: 17 fold
fold reduction of 125I-IL-17A binding [4]: ~7 fold
fold reduction of 125I-IL-17F binding [5]: ~5 fold
Kd [6]: 1 nM
B1: human IL-17F (ligand)
chain: RKIPKVGHTFFQKPESCPPVPGGSMKLDIGIINENQRVSMSRNIESRSTSPWNYTVTWDPNRYPSEVVQAQCRNLGCINAQGKEDISMNSVPIQQETLVVRRKHQGCSVSFQLEKVLVTVGCTCVTPVIHHVQ
notes: also called hIL-17F; hIL17F
